Experimental data taken from IntAct's records for PubMed 16980972.

Biological target: asf1a_human ASF1A (UniProt Q9Y294)
Sequence (Q9Y294 whole entry): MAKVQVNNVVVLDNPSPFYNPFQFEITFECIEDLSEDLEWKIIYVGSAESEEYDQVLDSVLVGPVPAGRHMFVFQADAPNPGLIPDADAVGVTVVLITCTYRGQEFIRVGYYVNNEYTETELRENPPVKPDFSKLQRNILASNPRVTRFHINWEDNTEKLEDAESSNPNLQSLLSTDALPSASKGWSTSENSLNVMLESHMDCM

effect of a mutation on the interaction: disrupting interaction
Substance: Chromatin assembly factor 1 subunit B (Homo sapiens) (from UniProt Q13112) R483A;R499A
